Data reported in patent publication US20180193413A1 (UNIVERSITY OF BRITISH COLUMBIA, published 2018).
Bridges are numbered along the chain shown (N, C = ends). Where no end group is shown, it is not given here.

T1: Human pancreatic α-amylase (human, UniProt P04746 16-511)
T1 construct: Recombinant, secreted from Pichia pastoris, purified and deglycosylated; also called HPA; human pancreatic alpha amylase
T1 sequence: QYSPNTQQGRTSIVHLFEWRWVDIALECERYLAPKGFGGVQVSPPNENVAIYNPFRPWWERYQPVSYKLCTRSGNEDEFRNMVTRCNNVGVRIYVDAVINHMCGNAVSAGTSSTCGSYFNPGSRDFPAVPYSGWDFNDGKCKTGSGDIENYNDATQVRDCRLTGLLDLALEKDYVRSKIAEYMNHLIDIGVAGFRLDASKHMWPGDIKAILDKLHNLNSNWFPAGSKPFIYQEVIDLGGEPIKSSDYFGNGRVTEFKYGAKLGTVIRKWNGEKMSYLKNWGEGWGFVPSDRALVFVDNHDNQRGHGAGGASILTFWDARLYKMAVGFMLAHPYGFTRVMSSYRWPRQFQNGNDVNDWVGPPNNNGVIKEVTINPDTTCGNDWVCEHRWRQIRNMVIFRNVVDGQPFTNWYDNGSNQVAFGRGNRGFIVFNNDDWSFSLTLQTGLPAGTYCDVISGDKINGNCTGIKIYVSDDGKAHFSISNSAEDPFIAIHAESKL

T2: Porcine pancreatic α-amylase (porcine, UniProt P00690 16-511)
T2 construct: Bought enzyme; also called PPA
T2 sequence: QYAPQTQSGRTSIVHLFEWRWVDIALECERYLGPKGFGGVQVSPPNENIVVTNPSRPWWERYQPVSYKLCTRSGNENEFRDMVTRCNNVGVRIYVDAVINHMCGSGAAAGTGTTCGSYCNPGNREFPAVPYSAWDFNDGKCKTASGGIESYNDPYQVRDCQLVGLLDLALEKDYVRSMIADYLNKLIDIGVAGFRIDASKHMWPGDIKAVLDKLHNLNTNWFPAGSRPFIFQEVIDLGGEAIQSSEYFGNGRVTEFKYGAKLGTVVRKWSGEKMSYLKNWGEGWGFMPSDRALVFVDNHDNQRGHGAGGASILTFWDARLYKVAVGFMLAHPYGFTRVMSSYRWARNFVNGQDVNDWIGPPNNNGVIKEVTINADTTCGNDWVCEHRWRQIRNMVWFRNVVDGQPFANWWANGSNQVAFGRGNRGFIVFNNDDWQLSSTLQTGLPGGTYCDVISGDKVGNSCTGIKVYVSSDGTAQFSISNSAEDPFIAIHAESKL

T3: T163R HPA mutant (human, UniProt P04746 16-511)
T3 construct: it may be shifted against the precursor entry
T3 sequence: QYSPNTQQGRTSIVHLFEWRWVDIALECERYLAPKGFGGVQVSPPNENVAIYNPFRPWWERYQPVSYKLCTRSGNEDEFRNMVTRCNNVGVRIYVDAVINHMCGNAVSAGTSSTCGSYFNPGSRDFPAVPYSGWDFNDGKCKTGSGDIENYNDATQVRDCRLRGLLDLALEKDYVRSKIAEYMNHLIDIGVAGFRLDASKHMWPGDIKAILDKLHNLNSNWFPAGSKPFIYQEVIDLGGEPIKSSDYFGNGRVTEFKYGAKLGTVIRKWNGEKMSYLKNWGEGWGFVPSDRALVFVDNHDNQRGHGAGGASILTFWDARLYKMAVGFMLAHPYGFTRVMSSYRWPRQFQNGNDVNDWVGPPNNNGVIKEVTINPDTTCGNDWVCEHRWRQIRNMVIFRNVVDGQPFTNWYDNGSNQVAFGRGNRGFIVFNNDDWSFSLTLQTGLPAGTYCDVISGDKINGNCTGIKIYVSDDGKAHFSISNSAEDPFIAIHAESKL


Experiments:
[1] = target: T1, Human pancreatic α-amylase; assay: enzyme kinetics (CNP-G3 hydrolysis), Morrison tight-binding fit, competitive inhibition; recombinant helianthamide
[2] = target: T2, Porcine pancreatic α-amylase; assay: enzyme kinetics, inhibition of glycosidase activity
[3] = target: T3, T163R HPA mutant; assay: enzyme kinetics (CNP-G3 hydrolysis), uncleaved bar′ fusion
[4] = target: T1, Human pancreatic α-amylase; assay: as above
[5] = target: T3, T163R HPA mutant; assay: enzyme kinetics, Ki against T163R HPA compared with HPA
[6] = target: T1, Human pancreatic α-amylase; assay: enzyme kinetics, Ki of bar′ fusion mutants against HPA

Binder | Ki [1] [nM] | Ki [2] [nM] | Ki [3] [nM] | Ki [4] [nM] | fold decrease in potency (against wild-type HPA) [5] [fold] | fold decrease in potency (against the bar′-Helianthamide fusion) [6] [fold]
ESGNSCYIYHGVSGICKASCAEDEKAMAGMGVCEGHLCCYKTPW (disulfide 16-33, 20-39, 6-38, 44-residue peptide with three disulfide bonds in a 1-5, 2-4, 3-6 pattern (C6-C38, C16-C33, C20-C39); crystal structure with PPA; also called recombinant Helianthamide; synthetic Helianthamide) [Helianthamide] | 0.01 | 0.1 | – | – | – | –
ESGNSCYIYHGVSGICKASCAEDEKAMAGMGVCEGHLCCYKTPW (other, not fully specified (N-terminus); ends and bridges not checked, Uncleaved fusion secreted from E. coli BL21*(DE3), purified on nickel; The text says that the junction is a TEV site; also called barnase′-helianthamide) [bar′-Helianthamide fusion] | – | – | 20 | 0.9 | 20 | –
ESGNSCYIYAGVSGICKASCAEDEKAMAGMGVCEGHLCCYKTPW (other, not fully specified (N-terminus); ends and bridges not checked, Tested as uncleaved fusion; also called H10A mutant of Helianthamide in bar′-Helianthamide fusion form) [Bar′-H10A] | – | – | 321 | 15 | – | –
ESGNSCAIYHGVSGICKASCAEDEKAMAGMGVCEGHLCCYKTPW (other, not fully specified (N-terminus); ends and bridges not checked, Tested as uncleaved fusion; also called Y7A mutant of Helianthamide in bar′-Helianthamide fusion form) [Bar′-Y7A] | – | – | 107 | 5 | – | –
ESGNSCYIAHGVSGICKASCAEDEKAMAGMGVCEGHLCCYKTPW (other, not fully specified (N-terminus); ends and bridges not checked, Tested as uncleaved fusion; also called Y9A mutant of Helianthamide in bar′-Helianthamide fusion form) [Bar′-Y9A] | – | – | 960 | 47 | – | 50
